The results in this text go back to US20060264369, “Aptamers to von Willebrand Factor and their use as thrombotic disease therapeutics” (published 2006).

Substitutions are numbered along the chain they refer to.

Data set [1] addresses von Willebrand factor full length (Homo sapiens, UniProt P04275 SEQ:764-2813). The data set is described as follows: filter; 20 nM protein. The following applies: tags: Calbiochem 681300. As to the method:
When a significant positive ratio of binding of DNA in the presence of human or rabbit vWF A1 domain versus in the absence of protein was seen, the pools were cloned using the TOPO TA cloning kit (Invitrogen Cat.# 45-0641, Carlsbad, Calif.) according to the manufacturer's instructions. […] All unique clones were assayed twice in a 3-point dot blot screen (no protein target control, 20 nM full length human vWF (Calbiochem Cat.# 681300, La Jolla, Calif.), or 20 nM rabbit vWF A1 domain. The data is presented in the third and fourth columns of Table 17 below as the ratio of the fraction of the aptamer bound to the nitrocellulose in the presence of the target protein to the fraction of aptamer bound in the absence of the target protein.

The target in data set [2] is von Willebrand factor A1 domain (human) (Homo sapiens, UniProt P04275 SEQ:13-246). The data set is described as follows: filter; 100 nM protein. How it is done:
All unique clones were assayed in a 3-point dot blot screen (no protein target control, 100 nM human vWF A1 domain (SEQ ID NO 5), or 100 nM rabbit vWF A1 domain (SEQ ID NO 6). The data are presented in the third and fourth columns of Table 14 below as the ratio of the fraction of the aptamer bound to the nitrocellulose in the presence of the target protein to the fraction of aptamer bound in the absence of the target protein.

B1: AMX237.C4 (ssDNA)
DNA: CTACCTACGATCTGACTAGCTTTCAGTCTTCCACATTTATAGGGTTTGGCATTGGGTCTGGCTTACTCTCATGTAGTTCC
For B1, in data set [1], the binding signal is 0.97 ratio to no protein.

B2: AMX237.E5 (ssDNA)
DNA: B1 DNA with C32T
In the case of B2, the binding signal in data set [1] is 0.97 ratio to no protein.

B3: AMX238.H11 (ssDNA)
DNA: B1 DNA with C31T
For B3, the binding signal in data set [1] was 0.98 ratio to no protein.

B4: AMX237.G2 (ssDNA)
DNA: B1 DNA with C31T, C34T
B4: in data set [1], the binding signal is 1.02 ratio to no protein.

B5: AMX237.F5 (ssDNA)
DNA: B1 DNA with C24T
Take B5: in data set [1], the binding signal is 0.99 ratio to no protein.

B6: AMX237.F1 (ssDNA)
DNA: B1 DNA with A35G
For B6, the binding signal in data set [1] was 0.98 ratio to no protein.

B7: AMX238.G4 (ssDNA)
DNA: CTACCTACGATCTGACTAGCTTGTCGCACTTTTGGTTGGTCTGGTTGGTTCTAAGTGCGCTTACTCTCATGTAGTTCC
B7: the binding signal in data set [1] was 1.09 ratio to no protein.

B8: AMX236.B3 (ssDNA)
DNA: CTACCTACGATCTGACTAGCCTTACCTATTCCCTTCTGCGGAATACGTCGAGTACTATGCTTACTCTCATGTAGTTCC
In the case of B8, the binding signal in data set [1] was 1.54 ratio to no protein.

B9: AMX237.F9 (ssDNA)
DNA: CTACCTACGATCTGACTAGCTTGGTAGCGATTCTGTGGAGCTGCGGTTTGGTCGACGTCAGCTTACTCTCATGTAGTTCC
For B9, the binding signal in data set [1] is 2.21 ratio to no protein.

B10: AMX236.A12 (ssDNA)
DNA: B9 DNA with T31C
Regarding B10, in data set [1], the binding signal is 2.64 ratio to no protein.

B11: AMX236.G4 (ssDNA)
DNA: B9 DNA with T31C, C33T, C41A, C53T
Turning to B11, the binding signal in data set [1] is 1.7 ratio to no protein.

B12: AMX236.C12 (ssDNA)
DNA: B9 DNA with T31C, T34C
Take B12: the binding signal in data set [1] is 1.99 ratio to no protein.

B13: AMX236.B8 (ssDNA)
DNA: B9 DNA with T31C, T48C
On to B13, for which, in data set [1], the binding signal is 1.66 ratio to no protein.

B14: AMX236.A11 (ssDNA)
DNA: B9 DNA with T31C, T48C, T52C
B14: in data set [1], the binding signal is 2.02 ratio to no protein.

B15: AMX237.D5 (ssDNA)
DNA: B9 DNA with T31C, T32A, C53T
For the molecule B15, in data set [1], the binding signal is 1.41 ratio to no protein.

B16: AMX237.G7 (ssDNA)
DNA: B9 DNA with T31C, C33T
Regarding B16, the binding signal in data set [1] was 2.68 ratio to no protein.

B17: AMX237.C9 (ssDNA)
DNA: B9 DNA with C28T, T31C, C33T
Turning to B17, in data set [1], the binding signal is 2.05 ratio to no protein.

B18: AMX237.H10 (ssDNA)
DNA: B9 DNA with T31C, T34A, T36A
As to B18, the binding signal in data set [1] is 1.71 ratio to no protein.

B19: AMX237.B1 (ssDNA)
DNA: B9 DNA with T31C, T32A, T34A
With B19, the binding signal in data set [1] was 2 ratio to no protein.

B20: AMX237.F12 (ssDNA)
DNA: B9 DNA with C33T
B20: the binding signal in data set [1] is 1.95 ratio to no protein.

B21: AMX200.G11 (ssDNA)
DNA: CTACCTACGATCTGACTAGCGGAACGAGAATGCTGATGGATTGCTCAGGTCTGCTGGCTGCTTACTCTCATGTAGTTCC
Take B21: the binding signal in data set [2] is 1.73 ratio to no protein.

B22: AMX200.B1 (ssDNA)
DNA: B21 DNA with C25T, T45C
For B22, in data set [2], the binding signal is 4.01 ratio to no protein.

B23: AMX200.A7 (ssDNA)
DNA: B21 DNA with C25T, C44T
As to B23, the binding signal in data set [2] was 0.97 ratio to no protein.

B24: AMX200.D8 (ssDNA)
DNA: B21 DNA with C25T, C33T
As for B24, the binding signal in data set [2] is 2.86 ratio to no protein.

B25: AMX200.B8 (ssDNA)
DNA: B21 DNA with C25T, C33T, A36G
Turning to B25, the binding signal in data set [2] is 4.13 ratio to no protein.

B26: AMX200.B9 (ssDNA)
DNA: B21 DNA with C25T, G57A
With B26, in data set [2], the binding signal is 2.54 ratio to no protein.

B27: AMX200.D11 (ssDNA)
DNA: B21 DNA with C25T, G26A
Regarding B27, the binding signal in data set [2] is 3.34 ratio to no protein.

B28: AMX238.E7 (ssDNA)
DNA: CTACCTACGATCTGACTAGCGTGCAGTGCCTATTTTAGGCCGTGCGGTGCCTCCGTCACGCTTACTCTCATGTAGTTCC
With B28, in data set [1], the binding signal is 3.02 ratio to no protein.

B29: AMX237.C11 (ssDNA)
DNA: B28 DNA with T35C, C59T
For B29, the binding signal in data set [1] was 2.04 ratio to no protein.

B30: AMX238.F3 (ssDNA)
DNA: B28 DNA with C40T, T48G
For the molecule B30, in data set [1], the binding signal was 2.83 ratio to no protein.

B31: AMX238.F2 (ssDNA)
DNA: B28 DNA with G21A, T31C, T35C, C59T
B31: the binding signal in data set [1] is 2.84 ratio to no protein.

B32: AMX237.F10 (ssDNA)
DNA: CTACCTACGATCTGACTAGCGTGCAGTGCCCATTCCAGGCCGTGCGGTATCCTCCGTCACGCTTACTCTCATGTAGTTCC
In the case of B32, in data set [1], the binding signal is 2.9 ratio to no protein.

B33: AMX236.H2 (ssDNA)
DNA: B32 DNA with C31T, T34C, T50G
As to B33, in data set [1], the binding signal was 2.12 ratio to no protein.

B34: AMX237.C5 (ssDNA)
DNA: B32 DNA with C31T, T34C, C35T
For the molecule B34, the binding signal in data set [1] was 2.55 ratio to no protein.

B35: AMX236.H1 (ssDNA)
DNA: CTACCTACGATCTGACTAGCCTCAGATTGACTCCGGCCGACTTGTTTTAATCTTCTGAGTGCTTACTCTCATGTAGTTCC
As for B35, in data set [1], the binding signal was 1.1 ratio to no protein.

B36: AMX236.G1 (ssDNA)
DNA: B35 DNA with C38T
For B36, the binding signal in data set [1] was 1.47 ratio to no protein.

B37: AMX237.E9 (ssDNA)
DNA: CTACCTACGATCTGACTAGCTCCAGTGTTTTGTCTAATAACCGTGCGGTGCCTCCGTGAGCTTACTCTCATGTAGTTCC
Regarding B37, the binding signal in data set [1] is 2.13 ratio to no protein.

B38: AMX238.G5 (ssDNA)
DNA: B37 DNA with G32A, C34T, T35C
Turning to B38, the binding signal in data set [1] is 3.06 ratio to no protein.

B39: AMX238.D12 (ssDNA)
DNA: B37 DNA with T31C, G32A, C34T, T35C
As for B39, the binding signal in data set [1] is 2.4 ratio to no protein.

B40: AMX237.B4 (ssDNA)
DNA: B37 DNA with T31C, G32A, T35C, C52T
Consider B40, for which the binding signal in data set [1] was 1.42 ratio to no protein.

B41: AMX237.A2 (ssDNA)
DNA: B37 DNA with T31C, G32A, T35C
Turning to B41, in data set [1], the binding signal is 2.6 ratio to no protein.

B42: AMX237.E2 (ssDNA)
DNA: B37 DNA with T31C, G32A
B42: in data set [1], the binding signal is 1.61 ratio to no protein.

B43: AMX237.H5 (ssDNA)
DNA: B37 DNA with T31C, G32A, C34T
Regarding B43, in data set [1], the binding signal is 1.63 ratio to no protein.

B44: AMX238.D8 (ssDNA)
DNA: B37 DNA with G32A, T35C, T38C
Take B44: the binding signal in data set [1] is 2.02 ratio to no protein.

B45: AMX237.B11 (ssDNA)
DNA: B37 DNA with G32A
Turning to B45, the binding signal in data set [1] was 2.87 ratio to no protein.

B46: AMX237.A11 (ssDNA)
DNA: B37 DNA with G32A, T35C
As for B46, in data set [1], the binding signal was 2.66 ratio to no protein.

B47: AMX238.D5 (ssDNA)
DNA: B37 DNA with G32A, C34T, T35C, C51T
As for B47, in data set [1], the binding signal is 1.46 ratio to no protein.
